Biological target: FcεRIα subunit of the high-affinity IgE receptor (FcεRI) (human) (UniProt P12319)
Assay: cell-based or functional assay

Sequence of FcεRIα subunit of the high-affinity IgE receptor (FcεRI) (human) (P12319 26-257 limits assumed, form in doubt): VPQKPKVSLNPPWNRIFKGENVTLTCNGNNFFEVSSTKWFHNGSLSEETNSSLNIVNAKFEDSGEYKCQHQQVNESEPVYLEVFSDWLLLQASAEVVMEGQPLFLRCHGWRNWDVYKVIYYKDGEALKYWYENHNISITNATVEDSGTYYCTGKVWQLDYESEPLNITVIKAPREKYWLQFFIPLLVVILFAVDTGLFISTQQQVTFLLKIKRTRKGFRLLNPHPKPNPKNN

- positive population mean for CD63: 52.7%
- positive population mean for CD107a: 71.2%
Substance: anti-FcεRIα antibody, clone AER-37 (CRA1)
